From article PMC9605926, “Safety of [^177Lu]Lu-NeoB treatment: a preclinical study characterizing absorbed dose and acute, early, and late organ toxicity” (European Journal of Nuclear Medicine and Molecular Imaging, 2022)
“And” between values parts separate entries of the source, which are not always exact repeats. Equal values may be shown once.

Experiments:
healthy Balb/c mice = assay: Toxicity study, hematology (same groups as A3); assay type: in vivo, mouse; conditions: 5, 11, 19, 30, 43 wk, mean±SD
Description: Five different experimental groups (10 male and 10 female healthy animals per group; n = 100) were included in the radiotoxicity study and treated as follows: control group 1: 3 × vehicle (PBS + kolliphor HS 15 (1 mg/mL)); control group 2: 3 × 1200 pmol [^175Lu]Lu-NeoB; treatment group 1: 3 × 40 MBq/400 pmol [^177Lu]Lu-NeoB; treatment group 2: 3 × 80 MBq/800 pmol [^177Lu]Lu-NeoB; and treatment group 3: 3 × 120 MBq/1200 pmol [^177Lu]Lu-NeoB.
Animals received 3 injections with an interval of 7 days between each injection.
(§1) Throughout the study, the animals were observed daily to check for physical signs of toxicity and signs of discomfort, and animals were weighed 2–3 times per week. Furthermore, at week -1, 5, 11, 19, 30, and 43, blood samples were collected by submandibular puncture from all animals that were in the study at that time point. All blood samples were analyzed for hematological parameters (hematocrit; hemoglobin; red blood cell count; white blood cell count; hemoglobin; mean cell hemoglobin concentration; mean cell volume; platelet count) on the scilVet abc + counter (Covetrus).

[1] = Toxicity study, body weight (same groups as A3); assay type: in vivo, mouse
Description: as §1
Statistical analysis was performed using GraphPad PRISM software (version 5). Significance levels were set at 5%. A simple binary logistic regression analysis was performed to determine a dose–effect relation between the absorbed dose and the histopathological findings in the kidneys using the log-likelihood ratio test as a significance indicator. The weight gain over time of control group 2 and treatment groups 1, 2, and 3 was compared to control group 1 by performing a two-way multiple comparison analysis of variance (ANOVA) with a Bonferroni correction. Significant outliers in the blood values set were detected with the Grubbs’ test and excluded from the data set. At a given time point, the measurements of all study groups were compared by performing a one-way ANOVA and in case of significance a Tukey test to correct for multiple comparisons. All data are represented as mean ± standard deviation (SD).

Structure (SMILES): CC(C)CC(CC(C)C)NC(=O)[C@H](Cc1cnc[nH]1)NC(=O)CNC(=O)[C@@H](NC(=O)[C@H](C)NC(=O)[C@H](Cc1c[nH]c2ccccc12)NC(=O)[C@H](CCC(N)=O)NC(=O)[C@@H](Cc1ccccc1)NC(=O)COCC(=O)Nc1ccc(CNC(=O)CN2CCN(CC(=O)O)CCN(CC(=O)O)CCN(CC(=O)O)CC2)cc1)C(C)C [[^177Lu]Lu-NeoB, metal not drawn]
- WBC (healthy Balb/c mice; female, treatment group 1): 6.20 ± 2.24 103/mm3 and 7.60 ± 3.77 103/mm3 and 6.80 ± 1.64 103/mm3 and 9.70 ± 2.96 103/mm3 and 7.20 ± 3.97 103/mm3
- WBC (healthy Balb/c mice; female, treatment group 2): 9.10 ± 3.17 103/mm3 and 5.89 ± 2.56 103/mm3 and 7.97 ± 2.09 103/mm3 and 6.74 ± 1.77 103/mm3 and 8.98 ± 1.67 103/mm3
- WBC (healthy Balb/c mice; male, treatment group 1): 8.08 ± 2.38 103/mm3 and 8.53 ± 1.17 103/mm3 and 8.12 ± 1.98 103/mm3 and 9.77 ± 2.82 103/mm3 and 7.53 ± 0.83 103/mm3
- WBC (healthy Balb/c mice; male, treatment group 2): 7.30 ± 2.24 103/mm3 and 6.65 ± 2.80 103/mm3 and 9.61 ± 1.52 103/mm3 and 8.68 ± 0.34 103/mm3 and 11.13 ± 3.50 103/mm3
- Weight gain versus control group 1 ([1]; female treatment group 2, by the end of the study): significantly higher weight gain
- Weight gain versus control groups ([1]; male treatment group 2, first half of the study): significantly less pronounced weight gain
- Weight gain versus control groups ([1]; male treatment group 3, first half of the study): significantly less pronounced weight gain
